Common to all, as to experiment: BLI; Octet RED; antibody (IgG, 10 µg/mL) immobilised on anti-human IgG Fc capture biosensors; antigen as analyte, six twofold dilutions from 2 µM (gp120 monomers) or 500 nM (BG505.SOSIP.664 trimer); 1X PBS, 0.1% BSA, 0.005% Tween-20, 0.02% sodium azide; 23°C; association 180 s, dissociation 180 s; double reference subtraction; global 1:1 fit
A general note: BLI is a label-free optical method that tracks binding on a fibre tip over time.

Assay [1] concerns the target ∆CDR1VH heavy chain chimera paired with the mature light chain (human).
The target of assay [2] is mature heavy chain paired with the inferred naive light chain (matVH 0VL) (human).
Chain of mature heavy chain paired with the inferred naive light chain (matVH 0VL) (human) (heavy, as listed by the source): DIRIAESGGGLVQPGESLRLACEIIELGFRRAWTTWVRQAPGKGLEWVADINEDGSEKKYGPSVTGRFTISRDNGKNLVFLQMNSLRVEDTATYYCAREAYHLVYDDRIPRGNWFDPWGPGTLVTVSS
Assay [3] addresses mature heavy chain paired with Int5∆FWR2-FWR3VL (human).

Chain of ∆CDR1VH heavy chain chimera paired with the mature light chain (human) (light, as listed by the source): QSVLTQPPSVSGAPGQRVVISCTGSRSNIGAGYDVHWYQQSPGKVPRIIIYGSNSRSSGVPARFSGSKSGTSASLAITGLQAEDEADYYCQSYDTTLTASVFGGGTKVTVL
Chain of mature heavy chain paired with Int5∆FWR2-FWR3VL (human) (heavy, as listed by the source): as the sequence (heavy, as listed by the source) above

Broadly, the Kd is the concentration at which binding is half-saturated. Low values mean tighter binding, high ones weaker binding. As for “BG505.SOSIP.664 trimer (from UniProt Q2N0S6 1-860; Q2N0S6 1-860) (complex)”, the Kd in assay [1] was determined as 40.6 nM; in assay [2], 89.6 nM; in assay [3], 1300 nM.

Values taken from publication PMC8376252.
